Experimental data reported in patent publication US9462805B2, “Herbicide-resistant proteins, encoding genes, and uses thereof” (Beijing Dabeinong Technology Group Co., Ltd., priority 2012, dated 2016).
Positions count from the first letter of the chain named.

B1: 24DT02: herbicide-resistant protein of 298 amino acids, SEQ ID NO: 2, encoded by nucleotide sequence SEQ ID NO: 1 (protein)
chain: MERHAMSNGKQIVRIEPLPGKTFGAVVTGVRLSELDEDTFSLLYREWLQYALLIFPAQYLTDSQQRDAASKFGCLVEGLEAVEISNLLPTGEVRAAPDDDMMKIIRGNMQWHQDNTYMPLQAKGALFSAKRVPSSGGETGFADMRAAWDALDTETQDRLANLSAYHSLAQSQKNLGEDVKSSDSEYIGYGLDVSTVPRRSLLKIHPETDRKTLAVGRHAFGVTGMAEQESTQFVSDLIDFAVADESRTYHHIWSEGDAILWDNRCLMHRACPWNFSQPRVMLHSRIAGDPSTEAALNS
modifications: 24DT02 amino acid sequence
B2: 24DT02-i: substituted 24DT02 (SEQ ID NO: 3), in which the Met267 was substituted with Leu (protein)
chain: B1 chain with M267L
modifications: 24DT02 substituted nucleotide sequence
B3: 24DT02-a: added 24DT02 (SEQ ID NO: 5), Ala, Leu and Val added after the 298th amino acid (protein)
chain: MERHAMSNGKQIVRIEPLPGKTFGAVVTGVRLSELDEDTFSLLYREWLQYALLIFPAQYLTDSQQRDAASKFGCLVEGLEAVEISNLLPTGEVRAAPDDDMMKIIRGNMQWHQDNTYMPLQAKGALFSAKRVPSSGGETGFADMRAAWDALDTETQDRLANLSAYHSLAQSQKNLGEDVKSSDSEYIGYGLDVSTVPRRSLLKIHPETDRKTLAVGRHAFGVTGMAEQESTQFVSDLIDFAVADESRTYHHIWSEGDAILWDNRCLMHRACPWNFSQPRVMLHSRIAGDPSTEAALNSALV
modifications: 24DT02 added nucleotide sequence
B4: 24DT02-t: truncated 24DT02 (SEQ ID NO: 4), amino acids from 1 to 295 of 24DT02 amino acid sequence (protein)
chain: MERHAMSNGKQIVRIEPLPGKTFGAVVTGVRLSELDEDTFSLLYREWLQYALLIFPAQYLTDSQQRDAASKFGCLVEGLEAVEISNLLPTGEVRAAPDDDMMKIIRGNMQWHQDNTYMPLQAKGALFSAKRVPSSGGETGFADMRAAWDALDTETQDRLANLSAYHSLAQSQKNLGEDVKSSDSEYIGYGLDVSTVPRRSLLKIHPETDRKTLAVGRHAFGVTGMAEQESTQFVSDLIDFAVADESRTYHHIWSEGDAILWDNRCLMHRACPWNFSQPRVMLHSRIAGDPSTEAA
modifications: 24DT02 truncated nucleotide sequence

Key:
[1] = system: Arabidopsis; test: Effective dose distinguishing sensitive from resistant Arabidopsis; assay type: in vivo
[2] = system: corn plants transfected with 24DT02 nucleotide sequence; test: Herbicide-resistance effect test of transgenic corn plants (24DT02; strains S1-S3); assay type: in vivo, maize; details: for resistance levels against 2,4-D dimethyl ammonium salt and agroxone, compared among the sequences: corn plants transformed with the respective sequence
Protocol: Herbicide resistance effects tests to 2,4-D dimethyl ammonium salt and agroxone of maize plants containing 24DT02 nucleotide sequence, 24DT02 substituted nucleotide sequence, 24DT02 truncated nucleotide sequence, 24DT02 added nucleotide sequence, control nucleotide sequence respectively and wild type maize plants (stages V3-V4) were performed respectively.
Maize plants containing 24DT02 nucleotide sequence, 24DT02 substituted nucleotide sequence, 24DT02 truncated nucleotide sequence, 24DT02 added nucleotide sequence, control nucleotide sequence respectively and wild type maize plants were taken and spayed with 2,4-D dimethyl ammonium salt (8960 g ae/ha, 16-folds concentration in field), agroxone (8960 g ae/ha, 16-folds concentration in field) and blank solvent (water) respectively. Prop root development was counted 21 days after spaying. Three strains (S1, S2, and S3) of corn plants transfected with 24DT02 nucleotide sequence, two strains (S4 and S5) of corn plants transfected with 24DT02 substituted nucleotide sequence, two strains (S6 and S7) of corn plants transfected with 24DT02 truncated nucleotide sequence, two strains (S8 and S9) of corn plants transfected with 24DT02 added nucleotide sequence, two strains (S10 and S11) of corn plants transfected with control nucleotide sequence and 1 strain of wild type (CK) corn were selected and 10-15 plants from each stain were tested.

[3] = system: Arabidopsis T1 plants transformed with 24DT02 nucleotide sequence; test: Herbicide resistance effect test of transgenic Arabidopsis T1 plants (24DT02); assay type: in vivo, Arabidopsis thaliana; details: for resistance levels to 2,4-D dimethyl ammonium salt and agroxone, compared among the sequences: Arabidopsis T1 plants transformed with the respective sequence
Protocol: On 7 days after planting (DAP) and 11 DAP respectively, the T1 plants (cotyledon stage and 2-4 leaves stage, respectively) were sprayed with 0.2% of Liberty herbicide solution (200 g ai/L glufosinate-ammonium) using DeVilbiss compressed air nozzle at a spraying volume of 10 ml/disc (703 L/ha) so as to provide effective amount of glufosinate-ammonium (280 g ai/ha) for each application. The survival plants (actively growing plants) were verified 4 to 7 days after the last spraying and transferred into the square pot (7 cm×7 cm) made from vermiculite and horses dung (3-5 plants per pot). The transplanted plants were covered with moisturizing mask for 3-4 days and placed in culture room at 22° C. or directly into the greenhouse as described above. Then the mask was removed and the plants were planted in greenhouse (22±5° C., 50±30% RH, 14 hours of lighting: 10 hours of darkness, minimum […] natural light+complement light) at least one day before testing the ability of 24DT02 to provide the resistance to phenoxy auxin herbicide.
24DT02 gene was used to transform Arabidopsis for the first time. At first, T1 transformants were selected from the background of un-transformed seeds, using glufosinate-ammonium selection scheme. About 40000 T1 seeds were screened among which 195 strains of T1 generation positive transformants (PAT gene) were identified, i.e. the transformation efficiency was about 0.5%. Herbicide resistance effect tests to 2,4-D dimethyl ammonium salt and agroxone of Arabidopsis T1 plants transformed with 24DT02 nucleotide sequence, substituted 24DT02 nucleotide sequence, truncated 24DT02 nucleotide sequence, added 24DT02 nucleotide sequence, control nucleotide sequence respectively and wild-type Arabidopsis plants were performed after 18 days of planting.
Arabidopsis T1 plants transformed with 24DT02 nucleotide sequence, substituted 24DT02 nucleotide sequence, truncated 24DT02 nucleotide sequence, added 24DT02 nucleotide sequence and control nucleotide sequence respectively and wild-type Arabidopsis plants were sprayed with 2,4-D dimethyl ammonium salt (560 g ae/ha, 1-fold concentration in field), agroxone (560 g ae/ha, 1-fold concentration in field) and blank solvent (water). Resistance conditions of the plants were counted 7 days and 14 days after spraying. Plants with growth conditions consistent with blank solvent (water) 7 days after spaying were classified as highly resistant plants; Plants with curly rosette leaves 7 days after spaying were classified as moderately resistant plants; Plants incapable of bolting 14 days after spaying were classified as low-resistant plants and the dead plants 14 days after spaying were classified as non-resistant plants. Because each Arabidopsis T1 plant was an independent transformation event, significant differences of individual T1 responses were expected under a given dose.

Molecule	effective dose to distinguish the sensitive plants from plants with average resistance [1] [g ae/ha]	resistance levels against 2,4-D dimethyl ammonium salt and agroxone, compared among the sequences [2]	herbicide resistance conferred to plants ([2]; transgenic maize plants, 2,4-D dimethyl ammonium salt and agroxone 8960 g ae/ha, Table 2)	resistance levels to 2,4-D dimethyl ammonium salt and agroxone, compared among the sequences [3]	herbicide resistance conferred to plants ([3]; Arabidopsis T1 plants, 2,4-D dimethyl ammonium salt and agroxone 560 g ae/ha, Table 1 and FIG. 4)
O=C(O)COc1ccc(Cl)cc1Cl [2,4-D, 2,4-dichlorophenoxyacetic acid]	50	–	–	–	–
B1	–	didn't show significant differences	conferred high resistance against herbicides to the transgenic maize plants	didn't show significant differences	conferred herbicide resistance to individual Arabidopsis plants
B2	–	didn't show significant differences	–	didn't show significant differences	–
B3	–	didn't show significant differences	–	didn't show significant differences	–
B4	–	didn't show significant differences	–	didn't show significant differences	–
